From PMC7586746, “A putative nuclear copper chaperone promotes plant immunity in Arabidopsis” (Journal of Experimental Botany, 2020) come the findings set out here.

One data set addresses NPR1 (UniProt P93002 1-593). The data set can be described thus: EMSA; NPR1 alone; LightShift EMSA kit: 500 ng GST-tagged protein, 4 fmol biotin-LS7 probe, 20 ul with 1 ul dI-dC, 1 ul 50% glycerol, kit 10x binding buffer, 20 min, 25 C; 6% native gel; salt and pH not stated. Conditions: protein: recombinant; tags: GST (N-terminal); blunt. In general terms: Mobility shift assays separate free from complexed probe on a gel.

The target in a further data set is TGA2;NPR1 (Arabidopsis thaliana?;Arabidopsis …, UniProt P43273;P93002 1-330;1-593, |). As to the kind of experiment: EMSA; with NPR1; substantially more probe bound than TGA2 alone; LightShift EMSA kit: 500 ng GST-tagged protein, 4 fmol biotin-LS7 probe, 20 ul with 1 ul dI-dC, 1 ul 50% glycerol, kit 10x binding buffer, 20 min, 25 C; 6% native gel; salt and pH not stated. Conditions: protein: recombinant;recombinant; tags: GST (N-terminal);GST (N-terminal); blunt.

For a further data set, the target named is T1, GST–NPR1 (UniProt P93002 1-593).
T1 construct: NPR1 (non-expressor of pathogenesis-related gene 1), cloned into pGEX-4T-1; source: E. coli BL21, purified
T1 sequence (looked up): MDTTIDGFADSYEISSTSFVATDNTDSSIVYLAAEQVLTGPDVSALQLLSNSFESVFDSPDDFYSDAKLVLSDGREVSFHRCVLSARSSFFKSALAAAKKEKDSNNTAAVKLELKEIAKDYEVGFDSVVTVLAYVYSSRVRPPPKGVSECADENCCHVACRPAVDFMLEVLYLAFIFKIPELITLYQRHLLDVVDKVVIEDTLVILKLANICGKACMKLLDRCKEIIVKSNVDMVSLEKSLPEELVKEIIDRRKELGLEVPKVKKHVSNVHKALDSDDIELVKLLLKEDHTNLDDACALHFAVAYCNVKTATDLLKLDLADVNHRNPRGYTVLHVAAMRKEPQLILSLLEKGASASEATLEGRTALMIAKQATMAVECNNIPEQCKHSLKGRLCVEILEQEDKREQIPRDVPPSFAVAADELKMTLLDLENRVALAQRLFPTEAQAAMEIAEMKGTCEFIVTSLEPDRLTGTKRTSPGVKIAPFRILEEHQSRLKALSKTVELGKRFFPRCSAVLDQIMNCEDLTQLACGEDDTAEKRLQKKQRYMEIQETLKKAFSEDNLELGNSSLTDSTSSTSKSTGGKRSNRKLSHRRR
The data set can be described thus: pull-down; GST pull-down in vitro of His-CCP and His-TGA2 added together, in the presence of Cu^2+ (Supplementary Fig. S13). Conditions: both partners purified.

B1: LS7 probe (PR1 promoter) (dsDNA)
DNA 1: TATTTTACTTACGTCATAGATGTGGCGGCA
DNA 2: TGCCGCCACATCTATGACGTAAGTAAAATA
Turning to B1, the binding result is “no binding” in the data set with NPR1 and “binds” in the data set with TGA2;NPR1.

B2: His-TGA2 (natural protein, UniProt P43273 1-330, looked up)
chain: MADTSPRTDVSTDDDTDHPDLGSEGALVNTAASDSSDRSKGKMDQKTLRRLAQNREAARKSRLRKKAYVQQLENSRLKLTQLEQELQRARQQGVFISGTGDQAHSTGGNGALAFDAEHSRWLEEKNKQMNELRSALNAHAGDSELRIIVDGVMAHYEELFRIKSNAAKNDVFHLLSGMWKTPAERCFLWLGGFRSSELLKLLANQLEPMTERQLMGINNLQQTSQQAEDALSQGMESLQQSLADTLSSGTLGSSSSGNVASYMGQMAMAMGKLGTLEGFIRQADNLRLQTLQQMIRVLTTRQSARALLAIHDYFSRLRALSSLWLARPRE
notes: transcription factor TGA2
Regarding B2, in the data set with GST–NPR1, the binding result is “binds”.
